Test results: paper PMC3262836

Target: Archeoglobus fulgidus HypB (A. fulgidus)
Test: SEC-MALS; SEC/LS, Superdex-75 HR10/30, 100 uL at 3 mg/mL, with 1 mM GMPPNP (GTP analog), 50 mM Tris pH 7.5, 0.1 M NaCl, 5 mM MgCl2, 1 mM TCEP, room temperature; monomer to dimer

stoichiometry N: 2
Substance: Archeoglobus fulgidus HypB (natural protein)
